Test results taken from US20200181277A1.

How the values were obtained:
[1] = biological target: purified human C1q (human) (UniProt P02745); assay: cell-based or functional assay
human CD40 (human) = human CD40 (human) (UniProt P25942); assay: cell-based or functional assay
human CD40 (human), sequence (P25942 21-277): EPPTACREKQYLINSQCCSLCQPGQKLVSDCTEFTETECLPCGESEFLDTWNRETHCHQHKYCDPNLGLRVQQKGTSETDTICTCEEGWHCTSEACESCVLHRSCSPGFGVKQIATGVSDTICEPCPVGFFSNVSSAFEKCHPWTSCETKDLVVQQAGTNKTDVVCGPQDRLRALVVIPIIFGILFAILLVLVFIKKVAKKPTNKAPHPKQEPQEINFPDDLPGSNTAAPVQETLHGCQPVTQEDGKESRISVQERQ

CD40 response, luciferase reporter cells, EC50 (human CD40 (human)) [ng/mL]	Substance	C1q EC90 (µg/mL), viability assay on WIL2-S SF cells [1] [µg/mL]
–	IgG1-b12 (antibody)	> 2.5
112	purified, recombinant CD40 ligand (R&D systems, Cat No. 6420-CL-025/CF) (from UniProt P29965 108-261)	–
